Reference: patent US8580258 (DEUTSCHES KREBSFORSCHUNGSZENTRUM STIFTUNG DES OFFENTLICHEN …, dated 2013)
Residue numbers refer to the chain shown, from its start.

Tests used:
streptavidin = streptavidin (UniProt P22629 37-163, limits assumed); experiment: ELISA, plate coated with streptavidin at 5 µg/ml, bacterial supernatants of 8 clones, anti-human kappa HRP conjugate, TMB
Procedure: Three rows of a 96 well plate were coated with 100 μl L1 antigen comprising the extracellolar domain of the L1 protein fused to an Fc fragment (5 μg/ml) in PBS for 1 hr at room temperature. A further three rows were coated with streptavidin (5 μg/ml) in PBS as a control.
The 96 well plate was washed four times with PBS 0.1% tween followed by the addition of 100 μl of anti-human kappa light chains bound and free antibody HRP conjugate (Sigma A7164) 1:5000 dilution in PBS 1% BSA. The conjugate was incubated for 1 hr at room temperature followed by five washes with PBS 0.1% tween.
The ELISA was developed by the addition of TMB 2-Component Microwell Peroxidase Substrate Kit (Kirkegaard and Perry Laboratories Inc., USA) according to the manufacturer's protocol. At least four L1 binding clones have been observed for each of three single chain antibody versions.

[1] = biological target: T1, recombinant L1-Fc fusion protein (human L1-Fc protein comprising the ectodomain of L1) (human, UniProt P32004 20-1120); experiment: Biacore SPR, L1-Fc coupled to CM5 chip, antibody as analyte 6-3333 nM
T1 construct: extracellular domain; also called L-Fc; L1 antigen; not shown: Fc fragment

[2] = biological target: T1, recombinant L1-Fc fusion protein (human …); experiment: Biacore SPR, L1-Fc on CM5 chip

Sequence of streptavidin (P22629 37-163 limits assumed): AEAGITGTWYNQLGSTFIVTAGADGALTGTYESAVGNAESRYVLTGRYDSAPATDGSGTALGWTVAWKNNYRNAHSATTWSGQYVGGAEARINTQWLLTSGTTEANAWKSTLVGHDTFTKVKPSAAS
T1 sequence (P32004 20-1120): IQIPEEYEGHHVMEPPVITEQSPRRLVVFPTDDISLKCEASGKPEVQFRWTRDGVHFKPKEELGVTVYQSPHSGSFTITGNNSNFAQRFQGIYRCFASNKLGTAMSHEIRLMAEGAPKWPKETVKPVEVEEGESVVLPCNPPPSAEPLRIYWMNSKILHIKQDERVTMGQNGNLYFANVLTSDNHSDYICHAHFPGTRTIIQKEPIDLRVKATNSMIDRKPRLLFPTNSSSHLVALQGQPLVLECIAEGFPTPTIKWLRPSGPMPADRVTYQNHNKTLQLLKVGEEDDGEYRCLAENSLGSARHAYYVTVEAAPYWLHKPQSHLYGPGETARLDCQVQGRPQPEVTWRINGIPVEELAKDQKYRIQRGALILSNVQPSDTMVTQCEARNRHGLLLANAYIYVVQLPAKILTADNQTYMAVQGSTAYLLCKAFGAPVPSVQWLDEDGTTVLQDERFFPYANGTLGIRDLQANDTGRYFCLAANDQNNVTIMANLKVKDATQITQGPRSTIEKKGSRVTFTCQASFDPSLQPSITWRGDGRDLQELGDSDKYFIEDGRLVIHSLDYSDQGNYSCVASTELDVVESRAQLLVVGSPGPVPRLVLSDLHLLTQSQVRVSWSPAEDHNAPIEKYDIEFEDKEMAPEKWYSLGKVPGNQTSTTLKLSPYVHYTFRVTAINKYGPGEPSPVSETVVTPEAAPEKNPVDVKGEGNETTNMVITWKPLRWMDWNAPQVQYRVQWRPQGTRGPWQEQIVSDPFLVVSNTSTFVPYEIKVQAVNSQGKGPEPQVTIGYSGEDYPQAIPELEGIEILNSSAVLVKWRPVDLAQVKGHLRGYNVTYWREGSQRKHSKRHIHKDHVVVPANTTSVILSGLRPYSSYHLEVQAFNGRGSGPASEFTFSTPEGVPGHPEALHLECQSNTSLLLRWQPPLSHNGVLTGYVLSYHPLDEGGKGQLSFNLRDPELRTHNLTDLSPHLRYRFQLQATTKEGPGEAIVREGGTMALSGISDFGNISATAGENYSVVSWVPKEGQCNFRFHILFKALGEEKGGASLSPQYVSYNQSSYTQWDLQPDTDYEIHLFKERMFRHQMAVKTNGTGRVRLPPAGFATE

B1: L1-9.3Hu single chain antibody (humanized L1-9.3Hu scFv fused to human c kappa constant region) (scFv)
scFv: DIQMTQSPSSLSASVGDRVTITCRASQDISNYLNWYQQKPGKAPKLLIYYTSRLHSGVPSRFSGSGSGTDYTFTISSLQPEDFATYFCQQGNTLPWTFGGGTKLEIKRTSGPGDGGKGGPGKGPGGEGTKGTGPGGEVQLVQSGGGLVQSGGSLRLSCRASGYTFTRYWMLWVRQRPGHGLEWVGEINPRNDRTNYNEKFKTRFTISVDRSKSTAYLQMDSLRAEDTAVYFCALGGGYAMDYWGQGTLVTVSSGGAAAAPSVFIFPPSDEQLKSGTASVVCLLNNFYPREAKVQWKVDNALQSGNSQESVTEQDSKDSTYSLSSTLTLSKADYEKHKVYACEVTHQGLSSPVTKSFNRGESHHHHHH
notes: The expressed portion may include the pelB leader
**Q.** Does B1 bind (streptavidin)?
**A.** no binding

B2: L1-9.3Hu3 single chain antibody (humanized L1-9.3Hu3 scFv fused to human c kappa constant region) (scFv)
scFv: B1 scFv with F73L, H179K, G185A, S213N, A215L
notes: The expressed portion may include the pelB leader; also called L1-9Hu3
**Q.** Does B2 bind (streptavidin)?
**A.** no binding

B3: L1-9.3 single chain antibody (murine L1-9.3 scFv fused to human c kappa constant region) (scFv)
scFv: DIQMTQTTSSLSAFLGDRVTISCRASQDISNYLNWYQQKPDGTVKLLIYYTSRLHSGVPSRFSGSGSGTDYSLTISNLEQEDFATYFCQQGNTLPWTFGGGTKLEIKRTSGPGDGGKGGPGKGPGGEGTKGTGPGGQVQLQQPGAELVKSGASVNLSCRASGYTFTRYWMLWVRQRPGHGLEWVGEINPRNDRTNYNEKFKTKATLTVDRSSSTAYMQLTSLTSEDSAVYFCALGGGYAMDYWGQGTSVTVSSGGAAAAPSVFIFPPSDEQLKSGTASVVCLLNNFYPREAKVQWKVDNALQSGNSQESVTEQDSKDSTYSLSSTLTLSKADYEKHKVYACEVTHQGLSSPVTKSFNRGESHHHHHH
notes: The expressed portion may include the pelB leader, which is cleaved off
**Q.** Does B3 bind (streptavidin)?
**A.** no binding

B4: monoclonal antibody L1-9.3, produced by the hybridoma cell deposited under DSMZ ACC2841 (antibody, V domains shown)
VH: QVQLQQPGAELVKSGASVNLSCRASGYTFTRYWMLWVRQRPGHGLEWVGEINPRNDRTNYNEKFKTKATLTVDRSSSTAYMQLTSLTSEDSAVYFCALGGGYAMDYWGQGTSVTVSS
VL: DIQMTQTTSSLSAFLGDRVTISCRASQDISNYLNWYQQKPDGTVKLLIYYTSRLHSGVPSRFSGSGSGTDYSLTISNLEQEDFATYFCQQGNTLPWTFGGGTKLEIK
**Q.** With B4 as the binder, how does the Kd [1] read?
**A.** 0.085 nM

**Q.** And the koff [1]?
**A.** 2.2e-05 s⁻¹

**Q.** What about the kon [1] of the same binder?
**A.** 260000 M⁻¹ s⁻¹

**Q.** And the Kd [2]?
**A.** 0.085 nM

**Q.** And the koff [2]?
**A.** 2.2e-05 s⁻¹

**Q.** What about the kon [2] of the same binder?
**A.** 260000 M⁻¹ s⁻¹

B5: humanised antibody L1-hu3 (antibody, V domains shown)
VH: EVQLVQSGGGLVQSGGSLRLSCRASGYTFTRYWMLWVRQRPGKGLEWVAEINPRNDRTNYNEKFKTRFTISVDRSKNTLYLQMDSLRAEDTAVYFCALGGGYAMDYWGQGTLVTVSS
VL: DIQMTQSPSSLSASVGDRVTITCRASQDISNYLNWYQQKPGKAPKLLIYYTSRLHSGVPSRFSGSGSGTDYTLTISSLQPEDFATYFCQQGNTLPWTFGGGTKLEIK
**Q.** With B5 as the binder, how does the Kd [1] read?
**A.** 0.081 nM

**Q.** What about the koff [1] of the same binder?
**A.** 6.5e-05 s⁻¹

**Q.** And the kon [1]?
**A.** 800000 M⁻¹ s⁻¹
